Here are results for 5 molecules from patent US20120322150A1 (CARNEGIE INSTITUTION OF WASHINGTON, published 2012).

Assay [1] addresses T1, MBP-BSU1 (Arabidopsis, UniProt Q9LR78 1-793).
T1 construct: Recombinant fusion used as probe in overlay (far-western) blots and in phosphatase assays; also called BSU1 from E. coli
The experiment in a line: in vitro overlay blot, MBP-BSU1 probe, anti-MBP detection. On the procedure: Total protein extracts obtained from Arabidopsis plants (F1) expressing BSU1 -YFP or co-expressing BSU1-YFP and BSK1-myc were immunoprecipitated with anti-myc, and the immunoblot was probed with anti-GFP and anti-myc antibody. […] GST-BSK1 or GST-BSK1 S230A was incubated with GST-BRI1-K or GST for 2 hrs. […] In the presence of BR (+BR), BR binding to the extracellular domain of BRI1 induces dissociation of BKI1 and association and inter-activation between BRI1 and BAKI. Activated BRI1 then phosphorylates BSK1, which in turn dissociates from the receptor complex and interacts with and presumably activate BSU1. BSU1 inactivates BIN2 by dephosphorylating its pTyr200, allowing accumulation of unphosphorylated BZR1/2, likely with help of a phosphatase that is yet to be identified. Unphosphorylated BZR1/2 accumulate in the nucleus and alter the expression of BR-target genes, leading to cellular and developmental responses. While individual representative protein is shown for each function, in Arabidopsis most of these components have about 2 to 5 homologous proteins (paralogs) that can contribute to the same or similar signaling function.
To test interaction of BSU1 with BIN2 or bin2-1 in vitro, a gel blot separating GST, GST-BIN2, GSTbin2-1 was incubated with 20 μg MBP-BSU1 in 5% non-fat dry milk/PBS buffer and washed four times. The blot was then probed with a polyclonal anti-MBP antibody. […]

The target in assay [2] is T1, MBP-BSU1. Description: overlay blot: GST fusions on membrane probed with MBP-BSU1 and anti-MBP antibody. As for the experimental part:
To test interaction of BSU1 with BIN2 or bin2-1 in vitro, a gel blot separating GST, GST-BIN2, GSTbin2-1 was incubated with 20 μg MBP-BSU1 in 5% non-fat dry milk/PBS buffer and washed four times. The blot was then probed with a polyclonal anti-MBP antibody. In the case of BSU1 overlay to BSK1, GST-BRI1-K, GST-BAK1-K and GST-BSK1 were separated by SDS-PAGE. To prepare phosphorylated BSK1, GST-BSK1 was incubated with GST-BRI1-K and 100 μM ATP in the kinase buffer for 2 hrs before SDS-PAGE. The blot was sequentially probed with MBP-BSU1 and a monoclonal anti-MBP antibody (New England Biolab, Beverly, Mass.).

Assay [3] concerns the target T2, BSL1 fused C-terminal half (cYFP) of yellow fluorescence protein (Arabidopsis, UniProt Q8L7U5 1-881).
T2 construct: BiFC construct; also called BSL1-cYFP; not shown: C-terminal half of YFP (cYFP)
T2 sequence: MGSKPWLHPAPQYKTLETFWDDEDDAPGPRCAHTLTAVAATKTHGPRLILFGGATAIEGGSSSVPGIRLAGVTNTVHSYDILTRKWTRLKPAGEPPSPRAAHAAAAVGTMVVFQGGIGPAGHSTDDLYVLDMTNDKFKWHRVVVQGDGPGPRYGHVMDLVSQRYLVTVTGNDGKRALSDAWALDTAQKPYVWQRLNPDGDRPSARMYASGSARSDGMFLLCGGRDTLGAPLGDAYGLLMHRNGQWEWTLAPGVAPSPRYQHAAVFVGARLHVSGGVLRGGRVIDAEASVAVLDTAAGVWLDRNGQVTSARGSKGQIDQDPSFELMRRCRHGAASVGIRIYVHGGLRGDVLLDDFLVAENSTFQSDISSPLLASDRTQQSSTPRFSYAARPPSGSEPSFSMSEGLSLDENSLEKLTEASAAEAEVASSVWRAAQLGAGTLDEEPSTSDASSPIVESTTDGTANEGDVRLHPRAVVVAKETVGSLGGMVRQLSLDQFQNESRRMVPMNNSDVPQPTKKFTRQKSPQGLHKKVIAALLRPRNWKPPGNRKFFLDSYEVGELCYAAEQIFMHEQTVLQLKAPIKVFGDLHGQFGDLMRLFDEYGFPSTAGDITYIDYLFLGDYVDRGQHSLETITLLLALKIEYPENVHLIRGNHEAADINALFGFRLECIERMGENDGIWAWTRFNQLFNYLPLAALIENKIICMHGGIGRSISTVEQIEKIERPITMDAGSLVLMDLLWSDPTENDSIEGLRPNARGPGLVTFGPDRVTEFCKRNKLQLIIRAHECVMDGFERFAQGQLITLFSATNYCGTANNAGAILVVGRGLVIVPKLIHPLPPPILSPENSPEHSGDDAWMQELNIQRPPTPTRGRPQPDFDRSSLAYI
The experiment in a line: BiFC in tobacco cells. The text has this: (§1) GST, GST-BIN2 and GST-bin2-1 were separated by SDS-PAGE and blotted onto nitrocellulose membrane. The blot was probed sequentially with MBP-BSU1 and anti-MBP antibody (upper) and then stained with Ponceau S (lower). […] The protein extracts of the tobacco leaves transiently transformed with the indicated constructs were immunoprecipitated with anti-GFP antibody, and the immunoblot was probed with anti-myc and anti-GFP antibody. […] The indicated constructs were transformed into tobacco leaf epidermal cells. Bright spots in BIN2-nYFP+cYFP are chloroplast auto-fluorescence. […] Arabidopsis plants (F1) expressing BSU1-YFP or co-expressing BSU1-YFP and BIN2-myc were grown on the medium containing BR biosynthetic inhibitor, brassinazole (BRZ), for 10 days. The plants were treated with 10 μM MG-132 for 1 hr and then with 0.2 μM BL or mock solution for 15 min. Total protein extracts were immunoprecipitated with anti-myc antibodies, and the immunoblot was probed with anti-GFP and anti-myc antibodies.
(§2) Transformation by Agrobacterium infiltration, observations of subcellular localization and BiFC signal in tobacco or Arabidopsis were performed as described previously 5. Fluorescence of YFP was visualized by using a spinning-disk confocal microscope (Leica Microsystems, Heerbruag, Germany).

Assay [4] addresses T3, BSU1 fused to C-terminal half (cYFP) of YFP (Arabidopsis, UniProt Q9LR78 1-793).
T3 construct: BiFC construct in tobacco leaf epidermal cells, with BIN2-nYFP or bin2-1-nYFP; also called BSU1-cYFP; not shown: C-terminal half of YFP (cYFP)
Description: BiFC in tobacco cells.
Source text: as §1, §2

T1 sequence (Q9LR78 whole entry, the tested form may be a part): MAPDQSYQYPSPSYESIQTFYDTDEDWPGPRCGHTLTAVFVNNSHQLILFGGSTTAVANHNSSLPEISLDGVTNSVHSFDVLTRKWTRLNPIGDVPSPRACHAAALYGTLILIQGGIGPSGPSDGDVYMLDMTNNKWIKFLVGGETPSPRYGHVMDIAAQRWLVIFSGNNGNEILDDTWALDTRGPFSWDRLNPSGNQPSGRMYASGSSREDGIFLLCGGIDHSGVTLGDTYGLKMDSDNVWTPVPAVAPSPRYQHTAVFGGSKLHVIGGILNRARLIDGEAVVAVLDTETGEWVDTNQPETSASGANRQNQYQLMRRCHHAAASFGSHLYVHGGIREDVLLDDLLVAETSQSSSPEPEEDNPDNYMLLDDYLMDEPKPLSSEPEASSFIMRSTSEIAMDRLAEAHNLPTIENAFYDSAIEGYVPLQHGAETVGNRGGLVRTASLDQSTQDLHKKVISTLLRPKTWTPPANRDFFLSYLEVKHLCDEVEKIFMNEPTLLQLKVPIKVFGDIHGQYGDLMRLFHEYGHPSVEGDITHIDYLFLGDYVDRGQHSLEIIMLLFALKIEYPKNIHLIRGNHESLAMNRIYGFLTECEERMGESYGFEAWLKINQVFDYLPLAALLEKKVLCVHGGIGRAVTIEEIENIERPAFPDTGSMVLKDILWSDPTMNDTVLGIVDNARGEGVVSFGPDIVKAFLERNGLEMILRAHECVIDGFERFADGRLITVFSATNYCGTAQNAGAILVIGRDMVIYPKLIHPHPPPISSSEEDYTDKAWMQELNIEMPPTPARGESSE
T3 sequence (Q9LR78 whole entry, the tested form may be a part): as above

B1: GST-BAK1-K (receptor, Arabidopsis, UniProt Q94F62 247-615, looked up)
chain: AWWRRKKPQDHFFDVPAEEDPEVHLGQLKRFSLRELQVASDNFSNKNILGRGGFGKVYKGRLADGTLVAVKRLKEERTQGGELQFQTEVEMISMAVHRNLLRLRGFCMTPTERLLVYPYMANGSVASCLRERPESQPPLDWPKRQRIALGSARGLAYLHDHCDPKIIHRDVKAANILLDEEFEAVVGDFGLAKLMDYKDTHVTTAVRGTIGHIAPEYLSTGKSSEKTDVFGYGVMLLELITGQRAFDLARLANDDDVMLLDWVKGLLKEKKLEALVDVDLQGNYKDEEVEQLIQVALLCTQSSPMERPKMSEVVRMLEGDGLAERWEEWQKEEMFRQDFNYPTHHPAVSGWIIGDSTSQIENEYPSGPR
notes: domain: kinase domain; also called kinase domain of BAK1; not shown: GST (glutathione S-transferase) tag
On to B1, for which the binding result with MBP-BSU1 [1] is recorded as “no binding”.

B2: GST-BRI1-K (receptor, Arabidopsis, UniProt O22476 815-1196, looked up)
chain: REMRKRRRKKEAELEMYAEGHGNSGDRTANNTNWKLTGVKEALSINLAAFEKPLRKLTFADLLQATNGFHNDSLIGSGGFGDVYKAILKDGSAVAIKKLIHVSGQGDREFMAEMETIGKIKHRNLVPLLGYCKVGDERLLVYEFMKYGSLEDVLHDPKKAGVKLNWSTRRKIAIGSARGLAFLHHNCSPHIIHRDMKSSNVLLDENLEARVSDFGMARLMSAMDTHLSVSTLAGTPGYVPPEYYQSFRCSTKGDVYSYGVVLLELLTGKRPTDSPDFGDNNLVGWVKQHAKLRISDVFDPELMKEDPALEIELLQHLKVAVACLDDRAWRRPTMVQVMAMFKEIQAGSGIDSQSTIRSIEDGGFSTIEMVDMSIKEVPEGKL
notes: domain: kinase domain; also called GST BR11-K; kinase domain of BRI1; not shown: GST (glutathione S-transferase) tag
On to B2, for which the binding result with MBP-BSU1 [1] is “no binding”.

B3: GST-BIN2 (enzyme, Arabidopsis, UniProt Q39011 1-380, looked up)
chain: MADDKEMPAAVVDGHDQVTGHIISTTIGGKNGEPKQTISYMAERVVGTGSFGIVFQAKCLETGETVAIKKVLQDRRYKNRELQLMRVMDHPNVVCLKHCFFSTTSKDELFLNLVMEYVPESLYRVLKHYSSANQRMPLVYVKLYMYQIFRGLAYIHNVAGVCHRDLKPQNLLVDPLTHQVKICDFGSAKQLVKGEANISYICSRFYRAPELIFGATEYTTSIDIWSAGCVLAELLLGQPLFPGENAVDQLVEIIKVLGTPTREEIRCMNPHYTDFRFPQIKAHPWHKIFHKRMPPEAIDFASRLLQYSPSLRCTALEACAHPFFDELREPNARLPNGRPFPPLFNFKQEVAGSSPELVNKLIPDHIKRQLGLSFLNQSGT
modifications: phospho-tyrosine 200 (autophosphorylation site of BIN2, detected on GST-BIN2 from E. coli)
notes: Expressed and purified from E. coli; also called wild type GST-BIN2; not shown: GST (glutathione S-transferase) tag
In the case of B3, the binding result with MBP-BSU1 [2] is “binds”.

B4: BIN2 fused to the N-terminal half (nYFP) of YFP (enzyme, Arabidopsis, UniProt Q39011 1-380, looked up)
chain: MADDKEMPAAVVDGHDQVTGHIISTTIGGKNGEPKQTISYMAERVVGTGSFGIVFQAKCLETGETVAIKKVLQDRRYKNRELQLMRVMDHPNVVCLKHCFFSTTSKDELFLNLVMEYVPESLYRVLKHYSSANQRMPLVYVKLYMYQIFRGLAYIHNVAGVCHRDLKPQNLLVDPLTHQVKICDFGSAKQLVKGEANISYICSRFYRAPELIFGATEYTTSIDIWSAGCVLAELLLGQPLFPGENAVDQLVEIIKVLGTPTREEIRCMNPHYTDFRFPQIKAHPWHKIFHKRMPPEAIDFASRLLQYSPSLRCTALEACAHPFFDELREPNARLPNGRPFPPLFNFKQEVAGSSPELVNKLIPDHIKRQLGLSFLNQSGT
notes: BiFC construct in tobacco cells; also called BIN2-nYFP; not shown: N-terminal half of YFP (nYFP)
Take B4: the binding result in assay [3] and in assay [4] was “binds” each time.

B5: GST-BSK1 (enzyme, Arabidopsis, UniProt Q944A7 1-512, looked up)
chain: MGCCQSLFSGDNPLGKDGVQPQPLSQNNHGGATTADNGGSGGASGVGGGGGGGGIPSFSEFSFADLKAATNNFSSDNIVSESGEKAPNLVYKGRLQNRRWIAVKKFTKMAWPEPKQFAEEAWGVGKLRHNRLANLIGYCCDGDERLLVAEFMPNDTLAKHLFHWENQTIEWAMRLRVGYYIAEALDYCSTEGRPLYHDLNAYRVLFDEDGDPRLSCFGLMKNSRDGKSYSTNLAYTPPEYLRNGRVTPESVTYSFGTVLLDLLSGKHIPPSHALDMIRGKNIILLMDSHLEGKFSTEEATVVVELASQCLQYEPRERPNTKDLVATLAPLQTKSDVPSYVMLGIKKQEEAPSTPQRPLSPLGEACSRMDLTAIHQILVMTHYRDDEGTNELSFQEWTQQMKDMLDARKRGDQSFREKDFKTAIDCYSQFIDVGTMVSPTVFGRRSLCYLLCDQPDAALRDAMQAQCVYPDWPTAFYMQSVALAKLNMNTDAADMLNEAAQLEEKRQRGGRGS
notes: also called full-length BSK1; not shown: GST (glutathione S-transferase) tag
Take B5: the binding result with MBP-BSU1 [2] is “binds”.
